Test results as given in PMC8294767 (2021).

Legend:
galectin-3 [1] = target: T1, galectin-3 (human (endogenous in A2780), UniProt P17931 1-250, biotinylated (printed: 'biotinylated galectin-3')); assay: SPR; platelets exposed to Revacept
galectin-3 [2] = target: T1, galectin-3; assay: SPR
galectin-3 [3] = target: T1, galectin-3; assay: SPR; remark: listed apart in the source
galectin-3 [4] = target: T1, galectin-3; assay: SPR; platelets exposed to anti-GPVI mAb

T1 sequence (P17931 whole entry): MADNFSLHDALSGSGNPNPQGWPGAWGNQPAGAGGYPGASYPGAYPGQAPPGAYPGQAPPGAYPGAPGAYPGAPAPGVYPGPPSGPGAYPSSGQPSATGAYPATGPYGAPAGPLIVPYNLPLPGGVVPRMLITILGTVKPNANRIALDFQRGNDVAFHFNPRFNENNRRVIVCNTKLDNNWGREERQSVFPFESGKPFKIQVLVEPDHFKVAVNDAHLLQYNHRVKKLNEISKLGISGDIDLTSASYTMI

B1: platelet glycoprotein VI (GPVI) (receptor)
chain: QSGPLPKPSLQALPSSLVPLEKPVTLRCQGPPGVDLYRLEKLSSSRYQDQAVLFIPAMKRSLAGRYRCSYQNGSLWSLPSDQLELVATGVFAKPSLSAQPGPAVSSGGDVTLQCQTRYGFDQFALYKEGDPAPYKNPERWYRASFPIITVTAAHSGTYRCYSFSSRDPYLWSAPSDPLELVVTGTSVTPSRLPTEPPSPVAEFSEATAELTVSFTNEVFTTETSRSITASPKESDSPAGPARQYYTKGNLVRICLGAVILIILAGFLAEDWHSRRKRLRHRGRAVQRPLPPLPPLPLTRKSNGGQDGGRQDVHSRGLCS
Question: B1 was tested. Which Kd (galectin-3 [1]) did it give?
Answer: The Kd was 16.2 µM.

Question: What about the Kd (galectin-3 [2]) of the same binder?
Answer: Its Kd is 42.2 µM.

Question: And the Kd (galectin-3 [3])?
Answer: Its Kd is 48.6 µM.

Question: What about the Kd (galectin-3 [4]) of the same binder?
Answer: The Kd was 21.4 µM.
